Data taken from paper PMC10404690.

Assays:
K18 fibril seeds (human) [1] = biological target: K18 fibril seeds (human) (UniProt P10636)
K18 fibril seeds (human) [2] = biological target: K18 fibril seeds (human) (UniProt P10636); remark: listed apart in the source
htau40 seeds (human) = htau40 seeds (human) (UniProt P10636)
[3] = biological target: AD tau filaments (in AD brain homogenate) (human (endogenous in AD brain tissue))
[4] = biological target: Atto633-labeled 3R MAP2 monomer (UniProt P11137); assay: fluorescence polarisation; fluorescence anisotropy; 100 nM Atto633-labeled monomer titrated with K18 seeds (0–20 μM monomer equivalents), equilibrated 16 h at 22 °C; one-site binding model; apparent KD, based on monomer equivalents of seeds, not seed concentrations
[5] = biological target: Atto633-labeled 4R MAP2 monomer (UniProt P11137); assay: as above
[6] = biological target: Atto633-labeled K18 monomer (human) (UniProt P10636); assay: as above

Chain of K18 fibril seeds (P10636 561-689): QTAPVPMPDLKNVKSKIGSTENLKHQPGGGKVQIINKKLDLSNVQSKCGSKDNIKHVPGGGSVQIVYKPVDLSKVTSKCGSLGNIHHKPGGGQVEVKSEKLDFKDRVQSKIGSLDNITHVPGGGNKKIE
Chain of K18 fibril seeds (human) (P10636 561-689): as above
Chain of 4R MAP2 (P11137 other isoform, or with tags, fused parts or gaps): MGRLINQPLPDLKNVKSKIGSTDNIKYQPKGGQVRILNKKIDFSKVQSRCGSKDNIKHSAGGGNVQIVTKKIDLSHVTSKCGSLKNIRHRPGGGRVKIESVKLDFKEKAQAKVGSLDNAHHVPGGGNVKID
Chain of htau40 seeds (human) (P10636 other isoform, or with tags, fused parts or gaps): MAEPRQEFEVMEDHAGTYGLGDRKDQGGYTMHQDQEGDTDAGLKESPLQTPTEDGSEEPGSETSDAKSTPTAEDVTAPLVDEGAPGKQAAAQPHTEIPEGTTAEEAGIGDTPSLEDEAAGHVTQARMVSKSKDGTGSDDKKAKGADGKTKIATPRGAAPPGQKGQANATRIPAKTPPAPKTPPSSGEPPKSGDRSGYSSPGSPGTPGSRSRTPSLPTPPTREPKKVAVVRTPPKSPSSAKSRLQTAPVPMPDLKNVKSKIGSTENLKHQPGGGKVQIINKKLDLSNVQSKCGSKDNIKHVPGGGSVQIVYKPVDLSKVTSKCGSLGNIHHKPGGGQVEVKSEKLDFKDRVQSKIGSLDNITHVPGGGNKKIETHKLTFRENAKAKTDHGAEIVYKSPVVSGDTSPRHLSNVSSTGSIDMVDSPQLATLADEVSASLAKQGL

4R MAP2 (from UniProt P11137-4 362-490) (domain or fragment)
IC50 of inhibition of K18-seeded aggregation of 10 μM K18 monomers (10% seeds, 6 h, 37 °C; sedimentation, SDS-PAGE, Coomassie; 12.5 nM-15 μM 4R MAP2); blocks recruitment of K18 monomers onto K18 seeds (K18 fibril seeds (human) [1]): 1.1 µM | percent of HEK293 cells expressing htau40P301S-EYFP that contain tau puncta 24 h after transduction of K18 seeds preincubated with 4R MAP2 (25% without MAP2) (K18 fibril seeds (human) [2]): 6.4 % of cells | tau fibril growth (10 μM htau40 monomers on 1% htau40 seeds, 21 h, 37 °C; sedimentation, SDS-PAGE) with 10 μM 4R MAP2, relative to the reaction without MAP2 set to 100% (% of growth without MAP2) (htau40 seeds (human)): 25 | amplification of tau fibrils from AD brain homogenate (5 μM htau40 monomer, cycles of shaking and growth for 30 h; sedimentation, SDS-PAGE, densitometry) with 5 μM 4R MAP2 [3]: > 80 % reduction

3R MAP2 (from UniProt P11137-4 362-490) (domain or fragment)
IC50 of inhibition of K18-seeded aggregation of 10 μM K18 monomers (10% seeds, 6 h, 37 °C; sedimentation, SDS-PAGE, Coomassie; 12.5 nM-25 μM 3R MAP2); blocks recruitment of K18 monomers onto K18 seeds (K18 fibril seeds (human) [1]): 2.2 µM | percent of HEK293 cells expressing htau40P301S-EYFP that contain tau puncta 24 h after transduction of K18 seeds preincubated with 3R MAP2 (25% without MAP2) (K18 fibril seeds (human) [2]): 11 % of cells | tau fibril growth (10 μM htau40 monomers on 1% htau40 seeds, 21 h, 37 °C; sedimentation, SDS-PAGE) with 10 μM 3R MAP2, relative to the reaction without MAP2 set to 100% (% of growth without MAP2) (htau40 seeds (human)): 56 | amplification of tau fibrils from AD brain homogenate (5 μM htau40 monomer, cycles of shaking and growth for 30 h; sedimentation, SDS-PAGE, densitometry) with 5 μM 3R MAP2 [3]: > 80 % reduction

K18 fibril seeds (from UniProt P10636-8 244-372)
Kd [4]: 1.6 µM | Kd [5]: 1.3 µM | Kd [6]: 5.4 µM
